{"source": "paper PMC2724291", "about": "(Nucleic Acids Research, 2009)", "proteins": {"B1": {"name": "hMBP-γ (H1 and H2 of the putative coiled-coil motif of ϕC31 Int fused to histidine-tagged maltose-binding protein) (domain or fragment, phage ϕC31, UniProt Q9T221 445-524, looked up)", "chain": "GKLTEAPEKSGERANLVAERADALNALEELYEDRAAGAYDGPVGRKHFRKQQAALTLRQQGAEERLAELEAAEAPKLPLD"}, "B2": {"name": "hMBP-γ^E449K (domain or fragment, phage ϕC31, UniProt Q9T221 445-524, looked up)", "chain": "B1 chain with E5K"}, "B3": {"name": "wild-type ϕC31 integrase (Int) (enzyme, phage ϕC31, UniProt Q9T221 1-605, looked up)", "chain": "MDTYAGAYDRQSRERENSSAASPATQRSANEDKAADLQREVERDGGRFRFVGHFSEAPGTSAFGTAERPEFERILNECRAGRLNMIIVYDVSRFSRLKVMDAIPIVSELLALGVTIVSTQEGVFRQGNVMDLIHLIMRLDASHKESSLKSAKILDTKNLQRELGGYVGGKAPYGFELVSETKEITRNGRMVNVVINKLAHSTTPLTGPFEFEPDVIRWWWREIKTHKHLPFKPGSQAAIHPGSITGLCKRMDADAVPTRGETIGKKTASSAWDPATVMRILRDPRIAGFAAEVIYKKKPDGTPTTKIEGYRIQRDPITLRPVELDCGPIIEPAEWYELQAWLDGRGRGKGLSRGQAILSAMDKLYCECGAVMTSKRGEESIKDSYRCRRRKVVDPSAPGQHEGTCNVSMAALDKFVAERIFNKIRHAEGDEETLALLWEAARRFGKLTEAPEKSGERANLVAERADALNALEELYEDRAAGAYDGPVGRKHFRKQQAALTLRQQGAEERLAELEAAEAPKLPLDQWFPEDADADPTGPKSWWGRASVDDKRVFVGLFVDKIVVTKSTTGRGQGTPIEKRASITWAKPPTDDDEDDAQDGTEDVAA"}}, "key": {"SEC [1]": {"target": "the molecule itself", "experiment": "SEC"}, "SEC [2]": {"target": "the molecule itself", "experiment": "SEC", "remark": "listed apart in the source"}}, "note": "Changes are numbered by the printed parent chain. Numbers in names are those of the source. Like-named read-outs stand apart in the source and are kept apart here."}
{"protein": "B1", "values": [{"measurement": "stoichiometry N", "setting": "SEC [1]", "result": 2}]}
{"protein": "B2", "values": [{"measurement": "binding result", "setting": "SEC [1]", "result": "binds"}]}
{"protein": "B3", "values": [{"measurement": "binding result", "setting": "SEC [2]", "result": "binds"}]}
